For seven molecules, Ranking, FACS data, Competition Binding, 1st exp. (ranking) and Competition Binding, 2nd exp. (ranking) results are on record in patent US20180228802A1.

Experiment [1] has as its target PD-1. In words: FACS; rank of the clone among the humanized BAP049 clones; cells and conditions not described in this filing. (Flow cytometry measures light scatter and fluorescence of single cells or particles in a stream.)
Experiment [2] concerns the target PD-1. The experiment is described as follows: competition binding, 1st experiment; rank among the clones; competitor not given.
The target of experiment [3] is PD-1. In words: competition binding, 2nd experiment; rank among the clones; competitor not given.
Sequence of PD-1 (chain, as listed by the source limits assumed): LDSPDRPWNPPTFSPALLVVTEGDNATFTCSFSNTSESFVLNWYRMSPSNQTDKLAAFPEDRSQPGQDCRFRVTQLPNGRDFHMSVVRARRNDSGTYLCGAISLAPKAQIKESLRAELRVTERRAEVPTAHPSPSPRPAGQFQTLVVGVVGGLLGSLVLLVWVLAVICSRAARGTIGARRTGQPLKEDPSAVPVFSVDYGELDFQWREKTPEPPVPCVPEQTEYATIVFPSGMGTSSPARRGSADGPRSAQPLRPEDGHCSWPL

B1: Clone No. 16 (antibody, human IgG4 S228P, kappa, V domains shown)
VH: EVQLVQSGAEVKKPGESLRISCKGSGYTFTTYWMHWVRQAPGQGLEWMGNIYPGTGGSNFDEKFKNRFTISRDNSKNTLYLQMNSLRAEDTAVYYCTRWTTGTGAYWGQGTTVTVSS
VL: EIVLTQSPDFQSVTPKEKVTITCKSSQSLLDSGNQKNFLTWYQQKPGQAPRLLIYWASTRESGVPSRFSGSGSGTDFTFTISSLEAEDAATYYCQNDYSYPYTFGQGTKVEIKR
In the case of B1, the Ranking, FACS data in the experiment with PD-1 [1] was determined as 15. The molecule further showed a Competition Binding, 1st exp. (ranking) in the experiment with PD-1 [2] of 16. Further, in the experiment with PD-1 [3], the Competition Binding, 2nd exp. (ranking) is 15.

B2: Clone No. 3 (antibody, human IgG4 S228P, kappa, V domains shown)
VH: EVQLVQSGAEVKKPGESLRISCKGSGYTFTTYWMHWIRQSPSRGLEWLGNIYPGTGGSNFDEKFKNRFTISRDNSKNTLYLQMNSLRAEDTAVYYCTRWTTGTGAYWGQGTTVTVSS
VL: DIQMTQSPSSLSASVGDRVTITCKSSQSLLDSGNQKNFLTWYQQKPGQAPRLLIYWASTRESGIPPRFSGSGYGTDFTLTINNIESEDAAYYFCQNDYSYPYTFGQGTKVEIKR
Regarding B2, the Ranking, FACS data with PD-1 [1] is 7. Besides, in the experiment with PD-1 [2], the Competition Binding, 1st exp. (ranking) worked out at 8. The Competition Binding, 2nd exp. (ranking) with PD-1 [3] is 14.

B3: Clone No. 1 (antibody, human IgG4 S228P, kappa, V domains shown)
VH: EVQLVQSGAEVKKPGESLRISCKGSGYTFTTYWMHWVRQATGQGLEWMGNIYPGTGGSNFDEKFKNRVTITADKSTSTAYMELSSLRSEDTAVYYCTRWTTGTGAYWGQGTTVTVSS
VL: EIVLTQSPATLSLSPGERATLSCKSSQSLLDSGNQKNFLTWYQQKPGQAPRLLIYWASTRESGVPSRFSGSGSGTEFTLTISSLQPDDFATYYCQNDYSYPYTFGQGTKVEIKR
For B3, the Ranking, FACS data in the experiment with PD-1 [1] amounted to 2. For the same molecule, the Competition Binding, 1st exp. (ranking) with PD-1 [2] is 7. In addition, the Competition Binding, 2nd exp. (ranking) with PD-1 [3] was determined as 2.

B4: Clone No. 5 (antibody, human IgG4 S228P, kappa, V domains shown)
VH: EVQLVQSGAEVKKPGESLRISCKGSGYTFTTYWMHWVRQATGQGLEWMGNIYPGTGGSNFDEKFKNRVTITADKSTSTAYMELSSLRSEDTAVYYCTRWTTGTGAYWGQGTTVTVSS
VL: EIVLTQSPATLSLSPGERATLSCKSSQSLLDSGNQKNFLTWYQQKPGKAPKLLIYWASTRESGVPSRFSGSGSGTDFTFTISSLQPEDIATYYCQNDYSYPYTFGQGTKVEIKR
In the experiment with PD-1 [1], B4 returned a Ranking, FACS data of 5. Further, the Competition Binding, 1st exp. (ranking) with PD-1 [2] was determined as 5. Further, in the experiment with PD-1 [3], the Competition Binding, 2nd exp. (ranking) was more than 4.

B5: Clone No. 2 (antibody, human IgG4 S228P, kappa, V domains shown)
VH: EVQLVQSGAEVKKPGESLRISCKGSGYTFTTYWMHWVRQATGQGLEWMGNIYPGTGGSNFDEKFKNRVTITADKSTSTAYMELSSLRSEDTAVYYCTRWTTGTGAYWGQGTTVTVSS
VL: DIQMTQSPSSLSASVGDRVTITCKSSQSLLDSGNQKNFLTWYQQKPGQAPRLLIYWASTRESGIPPRFSGSGYGTDFTLTINNIESEDAAYYFCQNDYSYPYTFGQGTKVEIKR
In the case of B5, the Ranking, FACS data with PD-1 [1] stood at 6. Moreover, the Competition Binding, 1st exp. (ranking) with PD-1 [2] was 3. In the experiment with PD-1 [3], this molecule yielded a Competition Binding, 2nd exp. (ranking) of 2.

B6: Clone No. 4 (antibody, human IgG4 S228P, kappa, V domains shown)
VH: EVQLVQSGAEVKKPGESLRISCKGSGYTFTTYWMHWIRQSPSRGLEWLGNIYPGTGGSNFDEKFKNRFTISRDNSKNTLYLQMNSLRAEDTAVYYCTRWTTGTGAYWGQGTTVTVSS
VL: EIVLTQSPATLSLSPGERATLSCKSSQSLLDSGNQKNFLTWYQQKPGKAPKLLIYWASTRESGVPSRFSGSGSGTDFTFTISSLQPEDIATYYCQNDYSYPYTFGQGTKVEIKR
In turn, B6 came in with a Ranking, FACS data in the experiment with PD-1 [1] of 14. In the experiment with PD-1 [2], this molecule yielded a Competition Binding, 1st exp. (ranking) of 15. Moreover, in the experiment with PD-1 [3], the Competition Binding, 2nd exp. (ranking) was found to be 15.

B7: Clone No. 12 (antibody, human IgG4 S228P, kappa, V domains shown)
VH: EVQLVQSGAEVKKPGESLRISCKGSGYTFTTYWMHWVRQATGQGLEWMGNIYPGTGGSNFDEKFKNRVTITADKSTSTAYMELSSLRSEDTAVYYCTRWTTGTGAYWGQGTTVTVSS
VL: DIQMTQSPSSLSASVGDRVTITCKSSQSLLDSGNQKNFLTWYLQKPGQSPQLLIYWASTRESGVPSRFSGSGSGTDFTFTISSLEAEDAATYYCQNDYSYPYTFGQGTKVEIKR
Regarding B7, the Ranking, FACS data in the experiment with PD-1 [1] stood at 3. Also, in the experiment with PD-1 [2], the Competition Binding, 1st exp. (ranking) worked out at 8. Moreover, in the experiment with PD-1 [3], the Competition Binding, 2nd exp. (ranking) was 16.
